Data published in patent US20240093191A1, “COMPOSITIONS AND METHODS FOR TREATING DISEASE ASSOCIATED WITH DUX4 OVEREXPRESSION” (RESEARCH INSTITUTE AT NATIONWIDE CHILDREN'S HOSPITAL, priority 2021, published 2024).
Positions count from the first letter of the chain named.

B1: U6.mi405C: mi405 construct with altered flanking sequences (nucleic acid)
DNA: ACGCCGCCATCTCTAGGCCCGCGCCGGCCCCCTCGCACAGACTTGTGGGAGAAGCTCGGCTACTCCCCTGCCCCGGTTAATTTGCATATAATATTTCCTAGTAACTATAGAGGCTTAATGTGCGATAAAAGACAGATAATCTGTTCTTTTTAATACTAGCTACATTTTACATGATAGGCTTGGATTTCTATAAGAGATACAAATACTAAATTATTATTTTAAAAAACAGCACAAAAGGAAACTCACCCTAACTGTAAAGTAATTGTGTGTTTTGAGACTATAAATATCCCTTGGAGAAAAGCCTTGTTTGCTCGAGTGAGCGATCCAGGATTCAGATCTGGTTTCTGTAAAGCCACAGATGGGAAACCAGATCTGAATCCTGGACTGCCTACTAGAGCGGCCGCCACTTTTTT
B2: U6.mi405B: mi405 construct with altered flanking sequences (nucleic acid)
DNA: ACGCCGCCATCTCTAGGCCCGCGCCGGCCCCCTCGCACAGACTTGTGGGAGAAGCTCGGCTACTCCCCTGCCCCGGTTAATTTGCATATAATATTTCCTAGTAACTATAGAGGCTTAATGTGCGATAAAAGACAGATAATCTGTTCTTTTTAATACTAGCTACATTTTACATGATAGGCTTGGATTTCTATAAGAGATACAAATACTAAATTATTATTTTAAAAAACAGCACAAAAGGAAACTCACCCTAACTGTAAAGTAATTGTGTGTTTTGAGACTATAAATATCCCTTGGAGAAAAGCCTTGTTTGACCGTTTAAACTCGAGTGAGCGATCCAGGATTCAGATCTGGTTTCTGTAAAGCCACAGATGGGAAACCAGATCTGAATCCTGGACTGCCTACTAGATTTTTT
B3: U6.mi405A: mi405 construct with altered flanking sequences (nucleic acid)
DNA: ACGCCGCCATCTCTAGGCCCGCGCCGGCCCCCTCGCACAGACTTGTGGGAGAAGCTCGGCTACTCCCCTGCCCCGGTTAATTTGCATATAATATTTCCTAGTAACTATAGAGGCTTAATGTGCGATAAAAGACAGATAATCTGTTCTTTTTAATACTAGCTACATTTTACATGATAGGCTTGGATTTCTATAAGAGATACAAATACTAAATTATTATTTTAAAAAACAGCACAAAAGGAAACTCACCCTAACTGTAAAGTAATTGTGTGTTTTGAGACTATAAATATCCCTTGGAGAAAAGCCTTGTTTGACCGTTTAAACTCGAGTGAGCGATCCAGGATTCAGATCTGGTTTCTGTAAAGCCACAGATGGGAAACCAGATCTGAATCCTGGACTGCCTACTAGAGCGGCCGCCACTTTTTT
B4: U6.mi405D: mi405 construct with altered flanking sequences (nucleic acid)
DNA: ACGCCGCCATCTCTAGGCCCGCGCCGGCCCCCTCGCACAGACTTGTGGGAGAAGCTCGGCTACTCCCCTGCCCCGGTTAATTTGCATATAATATTTCCTAGTAACTATAGAGGCTTAATGTGCGATAAAAGACAGATAATCTGTTCTTTTTAATACTAGCTACATTTTACATGATAGGCTTGGATTTCTATAAGAGATACAAATACTAAATTATTATTTTAAAAAACAGCACAAAAGGAAACTCACCCTAACTGTAAAGTAATTGTGTGTTTTGAGACTATAAATATCCCTTGGAGAAAAGCCTTGTTTGACTCGAGTGAGCGATCCAGGATTCAGATCTGGTTTCTGTAAAGCCACAGATGGGAAACCAGATCTGAATCCTGGACTGCCTACTAGAGCGGCCGCCACTTTTTT
B5: U6.mi405E: mi405 construct with altered flanking sequences (nucleic acid)
DNA: B4 DNA with G401C, C402A, C408G

Tested on: DUX4 ORF (RenLuc-DUX4 ORF)
Experiment: Dual-luciferase assay, RenLuc-DUX4 ORF reporter co-transfected with miDUX4 plasmids in HEK293 cells
Assay type: cell-based, human
Conditions: DUX4:mi405 molar ratio 2 to 1; HEK293; 24 h; normalized to U6.miGFP
Protocol: Dual Luciferase Assay. (See also FIGS. 1A, 3A-B, 4A-B, 5B, and 16B-C.) This assay was performed as previously described by Wallace et al. (Mol. Ther. Methods Clin. Dev. 8: 121-30 (2018)) and following the dual-luciferase reporter assay system (Promega) protocol with some modifications. All plasmid constructs had the psiCheck2 dual luciferase reporter plasmid (Promega) as backbone that contains separate Renilla and Firefly luciferase genes, where the former contains the various target sequences used in the experiments of the disclosure, and the latter serves as a transfection normalizer (control). All DUX4 and control sequences were cloned downstream of the Renilla luciferase stop codon, serving as a 3′UTR. HEK293 cells were pre-plated 24h before transfection. Cells were then co-transfected with the luciferase DUX4 reporter and individual microRNA expression plasmids in an increasing luciferase DUX4 reporter:miRNA molar ratio using Lipofectamine 2000 (Invitrogen). Luciferase activity was measured 24h or 48h after transfection. DUX4 gene silencing was determined as previously described [Wallace et al., Mol. Ther. Methods Clin. Dev. 8: 121-30 (2018)]. Triplicate data were averaged per experiment, and individual experiments were performed 3 times. Results were reported as the average ratio of Renilla to Firefly luciferase activity±SEM for all combined experiments.
Accordingly, two new mi405 constructs, i.e., mi405F and mi405NF, were designed. […] To assess the inhibition efficiency of the three mi405 constructs, a dual-luciferase assay and western blot analysis, similar to what was described for mir-675, were carried out. In the dual-luciferase assay, U6.mi405, U6.mi405F, or U6.mi405NF was co-transfected into HEK293 cells along with the RenLuc-DUX4 ORF (a construct expressing the open reading frame of DUX4 as a 3′UTR sequence of Renilla Luciferase). 24 h after transfection, U6.mi405, U6.mi405F, and U6.mi405NF reduced the relative Renilla luciferase activity by 85±1%, 89±1%, and 66±1% (P<0.0001, ANOVA, N=3), respectively, when tested against the RenLuc-DUX4 ORF construct.
In the case of B1, the “reduction of Renilla luciferase activity” value is reported as 64±1%. With B2 the “reduction of Renilla luciferase activity” value was 25±3%. With B3 the “reduction of Renilla luciferase activity” value was 72±1%. In the case of B4, the “reduction of Renilla luciferase activity” value is reported as 71±1%. With B5 the “reduction of Renilla luciferase activity” value was 73±1%.

Tested on: mi405 mature sequence
Experiment: QPCR of mature mi405 (standard TaqMan cDNA synthesis) in HEK293 cells
Assay type: cell-based, human
Conditions: 24 h after transfection
Protocol: TaqMan Gene Expression Assay. QRT-PCR was carried out to quantify the expression of pri-mir-675, mir-675-5p and mi405 using TaqMan probes (ThermoFisher Scientific). Experiments were started by eliminating genomic DNA from the RNA preparations, and then cDNA was generated using the High-Capacity cDNA Reverse Transcription Kit (Applied Biosystems) following manufacturer's instructions. Within the same cDNA reaction, 1×RT random hexamer primers were used to generate the cDNA for RPL13A, used as a reference gene, and for pri-mir-675. To generate the cDNA for mir-675, the RT mir-675 reverse primer provided by ThermoFisher Scientific was used. For mi405, the mi405 qPCR protocol was done as it was previously described [Wallace et al., Mol. Ther. Methods Clin. Dev. 8: 121-30 (2018)]. To quantify mir-675 and mi405 levels, RNA was extracted using the total RNA protocol for the mirVana miRNA Isolation Kit (Ambion) from HEK293 cells. cDNA was generated using the High-Capacity cDNA Reverse Transcription Kit (Applied Biosystems) using a mix of random hexamer primers and specific reverse primer for pri-mir-675 and mir-675-5p. For mi405, 200 nM of the stem-loop forming primer (5′-[…]-3′) (SEQ ID NO: 144) was also used for the RT step. A custom TaqMan assay (Applied Biosystems) including 1.5 μM of Forward primer (5′-[…]-3′) (SEQ ID NO: 145), 0.7 μM of Reverse primer (5′-GTGCAGGGTCCGAGGT-3′) (SEQ ID NO: 146), and 0.2 μM of mi405 probe (5′-6FAM-ATACGACGTCCAGGAT-3′) (SEQ ID NO: 147) was then run using the CFX Connect Real Time system apparatus (Bio-Rad). RPL13A (Mm02526700_g1; Applied Biosystems) served as the reference gene. The TaqMan gene expression assay consisted of using the TaqMan Gene Expression Master mix and TaqMan probes purchased from ThermoFisher Scientific. 1× of probe was mixed with 1× of the TaqMan Gene Expression Master mix (ThermoFisher Scientific), and with 20 ng of cDNA. The mir-675- and mi405-specific primers and probes were designed to quantify only the mir-675-5p and mi405 mature sequence (see TaqMan Gene Expression Master mix protocol).
Apart from the effect on the inhibition efficiency of mi405, the effect of the flanking sequences on the expression of the miRNA also was tested. Therefore, the expression of the processed mature mi405 sequences was quantified using the standard and advanced TaqMan cDNA synthesis reaction. In the former reaction, a reverse primer detects the mature mi405 sequence following a stem-loop primer-based small RNA detection principle (ThermoFisher Scientific) (Jung et al., RNA (2013) 19: 1-10). The amplification and quantification steps were then performed using a standard TaqMan probe specific to mi405 that base pairs at the junction between the mi405 mature sequence and the reverse primer sequence (FIG. 6A). […] In the TaqMan advanced cDNA synthesis reaction, the mature sequence is extended through ligation of an adaptor sequence at the 5′ end and through the enzymatic addition of a polyA tail at the 3′ end of the mature mi405 sequence. The amplification and quantification steps were then performed using a TaqMan advanced probe specific to mi405 that normally base pairs with the 3′ end of the mature miRNA and with part of the adaptor sequence. Here, an additional TaqMan advanced probe (embedded probe) that only base pairs with the mature sequence of mi405 (FIG. 6B) was used. As a result, following TaqMan advanced cDNA synthesis reaction, droplet digital PCR (ddPCR) was performed to quantify mi405, mi405F, mi405B, mi405C, mi405G and mi405H expression levels. For this, TaqMan advanced embedded and overlapped mi405 probes (FIG. 6B) were used.
For B3, the “levels of mature mi405 sequence compared to U6.mi405” value (shortened to “levels … compared to U6.mi405”) was “greater or higher with the difference not being statistically significant”. With B4 the “levels … compared to U6.mi405” value was “greater or higher with the difference not being statistically significant”. With B5 the “levels … compared to U6.mi405” value was “greater or higher with the difference not being statistically significant”.

Same assay, conditions: 24 h after transfection, normalized to RPL13A
In the case of B1, the “reduction of mature mi405 sequence expression relative to U6.mi405” value is reported as 63±27%. With B2 the “reduction of mature mi405 sequence expression relative to U6.mi405” value was 71±9%.

Tested on: mir-675
Experiment: not given
Conditions: published gene expression studies; cited from earlier work
For bleomycin, the mir-675 expression is given as “upregulated mir-675 expression”. In the case of estrogen, the mir-675 expression is given as “mir-675 was induced”.
